Results reported in publication PMC11606445.

Molecular target: PaNOMT9 (Phellodendron amurense)
Experiment: crystal structure

stoichiometry N: 2
Substance: PaNOMT9 (enzyme)
